In PMC11214633 one finds stoichiometry N data, which are given here for 2 substances.

For assay [1], the target named is prefusion-stabilized SARS-CoV-1 S2 subunit trimer (SARS-CoV-1). Put plainly: negative-stain EM.
The target in assay [2] is prefusion-stabilized PRD-0038 S2 subunit trimer (PRD-0038 sarbecovirus). Put plainly: negative-stain EM.

What is called stoichiometry N is the number of molecules, sites or subunits per partner or assembly. Substance “prefusion-stabilized SARS-CoV-1 S2 subunit trimer (domain or fragment)” yielded a stoichiometry N in assay [1] of 3.

Regarding “prefusion-stabilized PRD-0038 S2 subunit trimer (domain or fragment)”, in assay [2], the stoichiometry N came out at 3.
